# Measurements: publication PMC2831313
# Tests used:
# [1] = biological target: HapC(CCS) (Aspergillus nidulans); experiment: SDS-PAGE without reducing agent
# [2] = biological target: HapC(CSS) (Aspergillus nidulans); experiment: SDS-PAGE without reducing agent
# [3] = biological target: N-biotinylated HapB (Aspergillus nidulans); experiment: SPR
# [4] = biological target: HapC(SCS) (Aspergillus nidulans); experiment: SDS-PAGE without reducing agent
# [5] = biological target: oxidized HapC(CCS) (treated with diamide or H2O2) (Aspergillus nidulans); experiment: SDS-PAGE under non-reducing conditions
# [6] = biological target: HapC(SSC) (Aspergillus nidulans); experiment: SDS-PAGE without reducing agent
# [7] = biological target: oxidized HapC (treated with diamide or H2O2) (Aspergillus nidulans); experiment: SDS-PAGE under non-reducing conditions
# [8] = biological target: HapC with cysteine 78 exchanged to serine (Aspergillus nidulans); experiment: SDS-PAGE without reducing agent
# [9] = biological target: HapC with cysteine 74 exchanged to serine (Aspergillus nidulans); experiment: SDS-PAGE without reducing agent
substance,measurement,setting,value
HapC(CCS) (natural protein),stoichiometry N,[1],2
HapC(CSS) (natural protein),stoichiometry N,[2],2
heterodimer of HapC with cysteine 78 exchanged to serine and HapE (complex),HapB binding affinity relative to the HapC/HapE heterodimer,[3],50%
HapC(SCS) (natural protein),stoichiometry N,[4],2
oxidized HapC(CCS) (treated with diamide or H2O2) (natural protein),stoichiometry N,[5],2
HapC(SSC) (natural protein),stoichiometry N,[6],2
oxidized HapC (treated with diamide or H2O2) (natural protein),stoichiometry N,[7],2
HapC with cysteine 78 exchanged to serine (natural protein),stoichiometry N,[8],2
heterodimer composed of the HapC(CCS) mutant and HapE (complex),Kd,[3],36.8 nM
heterodimer of HapC with cysteine 74 exchanged to serine and HapE (complex),HapB binding affinity relative to the HapC/HapE heterodimer,[3],50%
HapC with cysteine 74 exchanged to serine (natural protein),stoichiometry N,[9],2
